# Test results published in article PMC13061240.
# Legend:
# [1] = biological target: beluga whale coronavirus (BwCoV) spike (S) glycoprotein ectodomain, 2P, GCN4 trimerization motif, Strep-tag (beluga whale coronavirus (BwCoV)); assay: cryo-EM structure
# [2] = biological target: bottlenose dolphin coronavirus (BdCoV) spike (S) glycoprotein ectodomain (23-1370), 2P, GCN4 trimeri (bottlenose dolphin coronavirus (BdCoV)); assay: cryo-EM structure
Substance,stoichiometry N [1],stoichiometry N [2]
"beluga whale coronavirus (BwCoV) spike (S) glycoprotein ectodomain, 2P, GCN4 trimerization motif, Strep-tag (domain or fragment)",3,–
"bottlenose dolphin coronavirus (BdCoV) spike (S) glycoprotein ectodomain (23-1370), 2P, GCN4 trimeri (domain or fragment)",–,3
